Article PMC4571291

Biological target: actin (UniProt P68135)
Test: ITC; Tmod or Lmod construct in the syringe titrated into LatB-actin in the cell (LatB:actin 1.2:1); 20 mM HEPES pH 7.5, 100 mM NaCl, 0.2 mM ATP, 1 mM DTT; temperature and concentrations listed in the figures

Tmod1_(ABS1), sequence (P28289 whole entry, the tested form may be a part): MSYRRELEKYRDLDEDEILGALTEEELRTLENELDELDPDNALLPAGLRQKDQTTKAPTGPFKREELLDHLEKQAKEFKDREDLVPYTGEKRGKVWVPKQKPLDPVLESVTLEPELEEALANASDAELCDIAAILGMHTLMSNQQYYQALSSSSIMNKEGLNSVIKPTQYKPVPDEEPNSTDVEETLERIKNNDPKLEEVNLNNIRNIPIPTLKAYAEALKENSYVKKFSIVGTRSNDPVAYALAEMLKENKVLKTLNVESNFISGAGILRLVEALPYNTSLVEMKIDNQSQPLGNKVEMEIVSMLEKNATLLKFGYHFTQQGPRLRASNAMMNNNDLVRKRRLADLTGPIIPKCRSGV

Tmod1_(ABS1) (from UniProt P28289-1 1-359) (domain or fragment)
stoichiometry N: 1
